Assay: RP-HPLC: insulin apparent solubility / percent recovery
Conditions: 7 days at 2-8° C.
Experimental: Apparent solubility was measured as the percent insulin recovery as compared to the initial formulations/conditions.
Samples were prepared by withdrawing 100 μL from each vial at every time point and centrifuging prior to loading. Samples were stored in an autosampler at 4° C. prior to use, and were considered stable for 3 days after preparation. All samples were tested in duplicate.
For insulin, 20 μL was injected for each HPLC run.
To determine the apparent solubility, the peak area of insulin/insulin analog main peak and desamido peak were integrated and combined together to calculate the percentage relative to the standards. […] The data were processed using Design-Expert® 7.0 (StatEase) and the “historical data” feature. Insulin percent purity was expressed as the percent of main insulin versus all insulin species.

Substance: Insulin Aspart
- Solubility of Insulin Aspart, % remaining of the original concentration (0.2% methylparaben + […] m-cresol, pH 6.6, NaCl 50 mM): 57.7%
- Solubility of Insulin Aspart, % remaining of the original concentration (0.2% methylparaben + […] m-cresol, pH 6.6, NaCl 80 mM): 32.1%
- Solubility of Insulin Aspart, % remaining of the original concentration (0.2% methylparaben + […] m-cresol, pH 6.6, NaCl 110 mM): 21.1%
- Solubility of Insulin Aspart, % remaining of the original concentration (0.2% methylparaben + […] m-cresol, pH 6.6, NaCl 140 mM): 14.7%
- Solubility of Insulin Aspart, % remaining of the original concentration (0.2% methylparaben + […] m-cresol, pH 6.8, NaCl 50 mM): 97.2%
- Solubility of Insulin Aspart, % remaining of the original concentration (0.2% methylparaben + […] m-cresol, pH 6.8, NaCl 80 mM): 84.1%
- Solubility of Insulin Aspart, % remaining of the original concentration (0.2% methylparaben + […] m-cresol, pH 6.8, NaCl 110 mM): 54.2%
- Solubility of Insulin Aspart, % remaining of the original concentration (0.2% methylparaben + […] m-cresol, pH 6.8, NaCl 140 mM): 32.2%
- Solubility of Insulin Aspart, % remaining of the original concentration (0.2% methylparaben + […] m-cresol, pH 7.0, NaCl 50 mM): 98.7%
- Solubility of Insulin Aspart, % remaining of the original concentration (0.2% methylparaben + […] m-cresol, pH 7.0, NaCl 80 mM): 100.2%
- Solubility of Insulin Aspart, % remaining of the original concentration (0.2% methylparaben + […] m-cresol, pH 7.0, NaCl 110 mM): 96.3%
- Solubility of Insulin Aspart, % remaining of the original concentration (0.2% methylparaben + […] m-cresol, pH 7.0, NaCl 140 mM): 67.9%
- Solubility of Insulin Aspart, % remaining of the original concentration (0.2% methylparaben + […] m-cresol, pH 7.2, NaCl 50 mM): 99.0%
- Solubility of Insulin Aspart, % remaining of the original concentration (0.2% methylparaben + […] m-cresol, pH 7.2, NaCl 80 mM): 100.2%
- Solubility of Insulin Aspart, % remaining of the original concentration (0.2% methylparaben + […] m-cresol, pH 7.2, NaCl 110 mM): 99.5%
- Solubility of Insulin Aspart, % remaining of the original concentration (0.2% methylparaben + […] m-cresol, pH 7.2, NaCl 140 mM): 101.6%
- Solubility of Insulin Aspart, % remaining of the original concentration (0.2% methylparaben + […] m-cresol, pH 7.4, NaCl 50 mM): 99.1%
- Solubility of Insulin Aspart, % remaining of the original concentration (0.2% methylparaben + […] m-cresol, pH 7.4, NaCl 80 mM): 100.5%
- Solubility of Insulin Aspart, % remaining of the original concentration (0.2% methylparaben + […] m-cresol, pH 7.4, NaCl 110 mM): 99.6%
- Solubility of Insulin Aspart, % remaining of the original concentration (0.2% methylparaben + […] m-cresol, pH 7.4, NaCl 140 mM): 99.6%
- Solubility of Insulin Aspart, % remaining of the original concentration (0.2% methylparaben + […] m-cresol, pH 7.6, NaCl 50 mM): 99.3%
- Solubility of Insulin Aspart, % remaining of the original concentration (0.2% methylparaben + […] m-cresol, pH 7.6, NaCl 80 mM): 100.6%
- Solubility of Insulin Aspart, % remaining of the original concentration (0.2% methylparaben + […] m-cresol, pH 7.6, NaCl 110 mM): 99.8%
- Solubility of Insulin Aspart, % remaining of the original concentration (0.2% methylparaben + […] m-cresol, pH 7.6, NaCl 140 mM): 99.8%
- Solubility of Insulin Aspart, % remaining of the original concentration (0.2% phenol + […] m-cresol, pH 6.6, NaCl 50 mM): 91.8%
- Solubility of Insulin Aspart, % remaining of the original concentration (0.2% phenol + […] m-cresol, pH 6.6, NaCl 80 mM): 59.2%
- Solubility of Insulin Aspart, % remaining of the original concentration (0.2% phenol + […] m-cresol, pH 6.6, NaCl 110 mM): 58.0%
- Solubility of Insulin Aspart, % remaining of the original concentration (0.2% phenol + […] m-cresol, pH 6.6, NaCl 140 mM): 39.3%
- Solubility of Insulin Aspart, % remaining of the original concentration (0.2% phenol + […] m-cresol, pH 6.8, NaCl 50 mM): 98.8%
- Solubility of Insulin Aspart, % remaining of the original concentration (0.2% phenol + […] m-cresol, pH 6.8, NaCl 80 mM): 91.8%
- Solubility of Insulin Aspart, % remaining of the original concentration (0.2% phenol + […] m-cresol, pH 6.8, NaCl 110 mM): 72.8%
- Solubility of Insulin Aspart, % remaining of the original concentration (0.2% phenol + […] m-cresol, pH 6.8, NaCl 140 mM): 50.9%
- Solubility of Insulin Aspart, % remaining of the original concentration (0.2% phenol + […] m-cresol, pH 7.0, NaCl 50 mM): 99.1%
- Solubility of Insulin Aspart, % remaining of the original concentration (0.2% phenol + […] m-cresol, pH 7.0, NaCl 80 mM): 100.6%
- Solubility of Insulin Aspart, % remaining of the original concentration (0.2% phenol + […] m-cresol, pH 7.0, NaCl 110 mM): 99.9%
- Solubility of Insulin Aspart, % remaining of the original concentration (0.2% phenol + […] m-cresol, pH 7.0, NaCl 140 mM): 88.9%
- Solubility of Insulin Aspart, % remaining of the original concentration (0.2% phenol + […] m-cresol, pH 7.2, NaCl 50 mM): 99.1%
- Solubility of Insulin Aspart, % remaining of the original concentration (0.2% phenol + […] m-cresol, pH 7.2, NaCl 80 mM): 100.5%
- Solubility of Insulin Aspart, % remaining of the original concentration (0.2% phenol + […] m-cresol, pH 7.2, NaCl 110 mM): 100.0%
- Solubility of Insulin Aspart, % remaining of the original concentration (0.2% phenol + […] m-cresol, pH 7.2, NaCl 140 mM): 99.7%
- Solubility of Insulin Aspart, % remaining of the original concentration (0.2% phenol + […] m-cresol, pH 7.4, NaCl 50 mM): 99.2%
- Solubility of Insulin Aspart, % remaining of the original concentration (0.2% phenol + […] m-cresol, pH 7.4, NaCl 80 mM): 100.6%
- Solubility of Insulin Aspart, % remaining of the original concentration (0.2% phenol + […] m-cresol, pH 7.4, NaCl 110 mM): 100.0%
- Solubility of Insulin Aspart, % remaining of the original concentration (0.2% phenol + […] m-cresol, pH 7.4, NaCl 140 mM): 99.7%
- Solubility of Insulin Aspart, % remaining of the original concentration (0.2% phenol + […] m-cresol, pH 7.6, NaCl 50 mM): 99.2%
- Solubility of Insulin Aspart, % remaining of the original concentration (0.2% phenol + […] m-cresol, pH 7.6, NaCl 80 mM): 100.8%
- Solubility of Insulin Aspart, % remaining of the original concentration (0.2% phenol + […] m-cresol, pH 7.6, NaCl 110 mM): 100.2%
- Solubility of Insulin Aspart, % remaining of the original concentration (0.2% phenol + […] m-cresol, pH 7.6, NaCl 140 mM): 99.8%
- Solubility of Insulin Aspart, % remaining of the original concentration ([…] phenol + […] m-cresol, pH 6.6, NaCl 50 mM): 97.9%
- Solubility of Insulin Aspart, % remaining of the original concentration ([…] phenol + […] m-cresol, pH 6.6, NaCl 80 mM): 86.3%
- Solubility of Insulin Aspart, % remaining of the original concentration ([…] phenol + […] m-cresol, pH 6.6, NaCl 110 mM): 54.4%
- Solubility of Insulin Aspart, % remaining of the original concentration ([…] phenol + […] m-cresol, pH 6.6, NaCl 140 mM): 38.3%
- Solubility of Insulin Aspart, % remaining of the original concentration ([…] phenol + […] m-cresol, pH 6.8, NaCl 50 mM): 99.8%
- Solubility of Insulin Aspart, % remaining of the original concentration ([…] phenol + […] m-cresol, pH 6.8, NaCl 80 mM): 97.9%
- Solubility of Insulin Aspart, % remaining of the original concentration ([…] phenol + […] m-cresol, pH 6.8, NaCl 110 mM): 97.5%
- Solubility of Insulin Aspart, % remaining of the original concentration ([…] phenol + […] m-cresol, pH 6.8, NaCl 140 mM): 60.5%
- Solubility of Insulin Aspart, % remaining of the original concentration ([…] phenol + […] m-cresol, pH 7.0, NaCl 50 mM): 99.7%
- Solubility of Insulin Aspart, % remaining of the original concentration ([…] phenol + […] m-cresol, pH 7.0, NaCl 80 mM): 99.3%
- Solubility of Insulin Aspart, % remaining of the original concentration ([…] phenol + […] m-cresol, pH 7.0, NaCl 110 mM): 99.3%
- Solubility of Insulin Aspart, % remaining of the original concentration ([…] phenol + […] m-cresol, pH 7.0, NaCl 140 mM): 100.2%
- Solubility of Insulin Aspart, % remaining of the original concentration ([…] phenol + […] m-cresol, pH 7.2, NaCl 50 mM): 99.1%
- Solubility of Insulin Aspart, % remaining of the original concentration ([…] phenol + […] m-cresol, pH 7.2, NaCl 80 mM): 99.2%
- Solubility of Insulin Aspart, % remaining of the original concentration ([…] phenol + […] m-cresol, pH 7.2, NaCl 110 mM): 99.2%
- Solubility of Insulin Aspart, % remaining of the original concentration ([…] phenol + […] m-cresol, pH 7.2, NaCl 140 mM): 101.1%
- Solubility of Insulin Aspart, % remaining of the original concentration ([…] phenol + […] m-cresol, pH 7.4, NaCl 50 mM): 100.0%
- Solubility of Insulin Aspart, % remaining of the original concentration ([…] phenol + […] m-cresol, pH 7.4, NaCl 80 mM): 99.6%
- Solubility of Insulin Aspart, % remaining of the original concentration ([…] phenol + […] m-cresol, pH 7.4, NaCl 110 mM): 99.5%
- Solubility of Insulin Aspart, % remaining of the original concentration ([…] phenol + […] m-cresol, pH 7.4, NaCl 140 mM): 101.1%
- Solubility of Insulin Aspart, % remaining of the original concentration ([…] phenol + […] m-cresol, pH 7.6, NaCl 50 mM): 100.1%
- Solubility of Insulin Aspart, % remaining of the original concentration ([…] phenol + […] m-cresol, pH 7.6, NaCl 80 mM): 99.7%
- Solubility of Insulin Aspart, % remaining of the original concentration ([…] phenol + […] m-cresol, pH 7.6, NaCl 110 mM): 99.4%
- Solubility of Insulin Aspart, % remaining of the original concentration ([…] phenol + […] m-cresol, pH 7.6, NaCl 140 mM): 101.1%

Source: patent US20130011378A1, “Stable formulations of a hyaluronan-degrading enzyme” (priority 2011, published 2013)
